Assay results: patent publication US20120282646A1 (KOREA RESEARCH INSTITUTE OF BIOSCIENCE AND BIOTECHNOLOGY, published 2012)

Columns and labels:
[1] = target: T1, Flag-Pyk2 (proline-rich tyrosine kinase 2 with N-terminal Flag tag, expressed from pFlag-Pyk2) (UniProt Q14289 1-1009); experiment: anti-Flag immunoprecipitation from 293T lysate, Western blot with anti-GST
T1 construct: Overexpressed in cells; not shown: N-terminal Flag tag from the pBICEP-CMV-1 vector
From the text: To determine a SOCS2 domain which is important in the binding with Pyk2, the present inventors carried out the following experiment. HA-Ubiquitin, pFlag-Pyk2, and, GST expression vector, pGST-SOCS2, pGST-SOCS2-ΔSH2 or pGST-SOCS2-ΔSOCS were cotransformed into 293T cells using Lipofectamin 2000. After 4 hr of transformation, the medium was replaced to a new culture medium, and 24 hr later, cells were lysed. The each cell lysate was allowed to react with anti-Flag antibody. The antigen-antibody complexes were precipitated by incubation at 4° C. for 1 day with G-protein-conjugated agarose. The immunoprecipitated complexes were washed with 1×PBS. Western blot analysis was performed by the same method in Example <2-1> using anti-GST antibody, anti-Flag antibody, or anti-HA antibody (Santa Cruz, U.S.A.).

[2] = target: T1, Flag-Pyk2 (proline-rich tyrosine kinase …); experiment: anti-Flag immunoprecipitation from NK-92 lysate, Western blot with anti-GST
From the text: (§1) From Example <12-4>, it was confirmed that phosphorylated Pyk2 and SOCS2 bind each other. To determine whether phosphorylation of Pyk2 is important in the binding with SOCS2 or not, the present inventors carried out the following experiment. First of all, HA-ubiquitin, pGST-SOCS2, and, pFlag-Pyk2 or pFlag-Pyk2-Y402F were cotransformed into NK-92 cells using Lipofectamin 2000. After 4 hr of transformation, the medium was replaced to a new culture medium, and 24 hr later, cells were lysed. The each cell lysate was allowed to react with anti-Flag antibody. The antigen-antibody complexes were precipitated by incubation at 4° C. for 1 day with G-protein-conjugated agarose. The immunoprecipitated complexes were washed with 1×PBS. Western blot analysis was performed by the same method in Example <2-1> using anti-p-Pyk2^Tyr402 antibody, anti-GST antibody, anti-Flag antibody or anti-HA antibody.

[3] = target: T2, Flag-Pyk2-Y402F (mutant Pyk2 in which tyrosine 402 had been mutated to phenylalanine, N-terminal Flag tag) (UniProt Q14289 1-1009); experiment: as above
T2 construct: Made from pFlag-Pyk2 by site-directed mutagenesis; also called pFlag-Pyk2-Y402F; not shown: N-terminal Flag tag from the pBICEP-CMV-1 vector
From the text: as §1

T1 sequence (Q14289 whole entry): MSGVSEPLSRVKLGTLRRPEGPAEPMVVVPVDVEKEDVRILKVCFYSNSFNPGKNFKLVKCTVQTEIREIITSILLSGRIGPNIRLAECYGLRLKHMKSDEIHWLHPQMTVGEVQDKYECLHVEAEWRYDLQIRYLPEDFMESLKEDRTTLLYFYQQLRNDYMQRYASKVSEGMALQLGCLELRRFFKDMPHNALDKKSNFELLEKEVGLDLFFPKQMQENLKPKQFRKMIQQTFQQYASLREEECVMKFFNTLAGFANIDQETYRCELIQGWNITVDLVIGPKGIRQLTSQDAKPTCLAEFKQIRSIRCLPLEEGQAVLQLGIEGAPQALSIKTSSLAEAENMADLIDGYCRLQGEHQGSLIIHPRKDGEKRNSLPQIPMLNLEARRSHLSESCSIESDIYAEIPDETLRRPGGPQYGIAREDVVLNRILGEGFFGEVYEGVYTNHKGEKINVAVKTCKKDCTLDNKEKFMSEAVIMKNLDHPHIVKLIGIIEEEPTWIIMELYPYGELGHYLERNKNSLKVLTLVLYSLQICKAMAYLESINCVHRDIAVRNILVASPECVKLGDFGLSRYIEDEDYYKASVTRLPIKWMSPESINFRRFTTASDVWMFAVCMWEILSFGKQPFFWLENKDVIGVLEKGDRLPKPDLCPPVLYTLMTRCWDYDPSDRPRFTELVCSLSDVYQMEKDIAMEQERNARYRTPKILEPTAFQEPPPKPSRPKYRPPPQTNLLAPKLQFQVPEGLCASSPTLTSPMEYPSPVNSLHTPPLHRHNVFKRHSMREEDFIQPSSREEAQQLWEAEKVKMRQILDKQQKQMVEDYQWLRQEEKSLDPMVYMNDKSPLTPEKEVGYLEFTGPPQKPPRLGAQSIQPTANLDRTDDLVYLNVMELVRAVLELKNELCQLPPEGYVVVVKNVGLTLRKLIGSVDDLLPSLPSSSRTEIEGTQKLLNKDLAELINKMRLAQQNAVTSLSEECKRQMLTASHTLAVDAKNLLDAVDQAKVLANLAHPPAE
T2 sequence (Q14289 whole entry Y402F): as the sequence (Q14289 whole entry) above, with Y402F counted along it

B1: GST-SOCS2-ΔSH2 (mutant SOCS2 in which the SH2 domain was deleted, N-terminal GST tag) (other)
chain: MTLRCLEPSGNGGEGTRSQWGTAGSAEEPSPQAARLAKALRELGQ
notes: also called pGST-SOCS2-ΔSH2; not shown: N-terminal GST tag of the pEBG vector and the junction to it
[1]
  binding result: no binding

B2: GST-SOCS2 (SOCS2, suppressor of cytokine signaling 2, with N-terminal GST tag, expressed from pGST-SOCS2) (other, UniProt O14508 1-198, looked up)
chain: MTLRCLEPSGNGGEGTRSQWGTAGSAEEPSPQAARLAKALRELGQTGWYWGSMTVNEAKEKLKEAPEGTFLIRDSSHSDYLLTISVKTSAGPTNLRIEYQDGKFRLDSIICVKSKLKQFDSVVHLIDYYVQMCKDKRTGPEAPRNGTVHLYLTKPLYTSAPSLQHLCRLTINKCTGAIWGLPLPTRLKDYLEEYKFQV
notes: Overexpressed in 293T or NK-92 cells and tested in cell lysate; not shown: N-terminal GST tag from the pEBG vector
[2]
  binding result: binds
[3]
  binding result: no binding
